Measurements from the supplement of paper PMC7877785.
± gives the uncertainty stated by the source.

Experiment: self-splicing fitness, log relative to wild type (ln ratio); higher = more splicing; Tetrahymena group I intron in knt gene, E. coli kanamycin selection, DiMSum; sequences stand for … in CUCUCU…GGAGGGAAAAGUUAUCAGGCAUGCACCUGGUAGCUAGUCUUUAAACCAAUAGAUUGCAUCGGUUUAAAAGGCAAGACCGUCAAAUUGCGGGAAAGGGGUCAACAGCCGUUCAGUACCAAGUCUCAGGGGAAACUUUGAGAUGGCCUUGCAAAGGGUAUGGUAAUAAGCUGACGGACAUGGUCCUAACCACGCAGCCAAGUCCUAAGUCAACAGAUCUUCUGUUGAUAUGGAUGCAGUUCACAGACUAAAUGUCGGUCGGGGAAGAUGUAUUCUUCUCAUAAGAUAUAGUCGGACCUCUCCUUAAUGGGAGCUAGCGGAUGAAGUGAUGCAACACUGGAGCCGCUGGGAACUAAUUUGUAUGCGAAAGUAUAUUGAUUAGUUUUGGAGUACUCGUGGUCG
Outline: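 Library with all eight P1ex-region intron nucleotides randomised, intron inside the knt kanamycin-resistance gene on pET-22b(+), in E. coli BL21(DE3). Cells grew overnight at 37°C or 30°C on LB agar with or without 25 μg/mL kanamycin (plus 100 μg/mL carbenicillin, 50 μM IPTG, 0.2% rhamnose), in six replicate transformations. Pooled colonies were amplicon-sequenced on Illumina HiSeq 2500. DiMSum fitness is the error-weighted combination of wild-type-normalised replicate fold changes, kanamycin versus none.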

| Sequence | self-splicing fitness (ln) (30 °C) | self-splicing fitness (ln) (37 °C) |
| --- | --- | --- |
| UGCUAGCAAUAUUACGGUUU | -1.27 ± 0.062 | -0.216 ± 0.073 |
| UGCUAGCAAUAUUACGUCAG | -2.36 ± 0.12 | -1.33 ± 0.12 |
| UGCUAGCAAUAUUACGUUAC |  | -1.91 ± 0.23 |
| UGCUAGCAAUAUUACGUUGC | -3.53 ± 0.34 | -1.77 ± 0.23 |
| UGCUAGCAAUAUUACGUUUU | -3.29 ± 0.18 | -1.94 ± 0.14 |
| UGGAAGCAAUAUUACGAAAA | -1.93 ± 0.22 | -1.13 ± 0.19 |
| UGGAAGCAAUAUUACGAAUG | -0.927 ± 0.11 | -0.211 ± 0.12 |
| UGGAAGCAAUAUUACGACUA | -0.154 ± 0.074 | 0.331 ± 0.11 |
| UGGAAGCAAUAUUACGAUCG | 0.288 ± 0.14 | 0.382 ± 0.15 |
| UGGAAGCAAUAUUACGCCUG | -0.491 ± 0.083 | -0.15 ± 0.099 |
| UGGAAGCAAUAUUACGCGAG | -1.26 ± 0.19 | 0.167 ± 0.16 |
| UGGAAGCAAUAUUACGCGCA | -0.534 ± 0.13 | 0.365 ± 0.13 |
| UGGAAGCAAUAUUACGCGUA | -1.21 ± 0.11 | -0.131 ± 0.15 |
| UGGAAGCAAUAUUACGCUAC | -4.5 ± 0.34 | -2.24 ± 0.21 |
| UGGAAGCAAUAUUACGCUCA | -0.562 ± 0.11 | -0.00417 ± 0.13 |
| UGGAAGCAAUAUUACGGCCU | -0.816 ± 0.11 | -0.639 ± 0.13 |
| UGGAAGCAAUAUUACGGCGG | -0.545 ± 0.08 | -0.13 ± 0.1 |
| UGGAAGCAAUAUUACGGCUA | -0.499 ± 0.14 | -0.0289 ± 0.23 |
| UGGAAGCAAUAUUACGGUGU | -1.46 ± 0.14 | -3.33 ± 0.27 |
| UGGAAGCAAUAUUACGUAGA | -2.06 ± 0.13 | -1.01 ± 0.13 |
| UGGAAGCAAUAUUACGUCAC |  | -1.54 ± 0.24 |
| UGGAAGCAAUAUUACGUGAC | -2.76 ± 0.34 | -1.75 ± 0.4 |
| UGGAAGCAAUAUUACGUGGU | -3.53 ± 0.49 | -2.25 ± 0.3 |
| UGGAAGCAAUAUUACGUUCU | -3.42 ± 0.25 | -1.31 ± 0.17 |
| UGGAAGCAAUAUUACGUUGC | -4.13 ± 0.47 | -3.11 ± 0.4 |

| Sequence | self-splicing fitness (ln) (30 °C) | self-splicing fitness (ln) (37 °C) |
| --- | --- | --- |
| UGGAAGCAAUAUUACGUUGG | -2.69 ± 0.19 | -0.902 ± 0.14 |
| UGGCAGCAAUAUUACGACGU | -1.84 ± 0.16 | -0.565 ± 0.2 |
| UGGCAGCAAUAUUACGACUC | -1 ± 0.1 | -1.1 ± 0.12 |
| UGGCAGCAAUAUUACGAUAC | -3.31 ± 0.48 | -1.99 ± 0.38 |
| UGGCAGCAAUAUUACGAUUU | -1.66 ± 0.086 | -0.484 ± 0.1 |
| UGGCAGCAAUAUUACGCAGA | -1.21 ± 0.14 | -0.916 ± 0.12 |
| UGGCAGCAAUAUUACGCAGG | -2.79 ± 0.16 | -1.23 ± 0.12 |
| UGGCAGCAAUAUUACGCCAG | -1.46 ± 0.14 | -1.59 ± 0.21 |
| UGGCAGCAAUAUUACGCCGG | -1.64 ± 0.14 | -0.838 ± 0.2 |
| UGGCAGCAAUAUUACGGAAC | -2.89 ± 0.36 | -1.72 ± 0.21 |
| UGGCAGCAAUAUUACGGAAG | -1.78 ± 0.13 | -0.447 ± 0.12 |
| UGGCAGCAAUAUUACGGGUG | -0.883 ± 0.071 | -0.596 ± 0.088 |
| UGGCAGCAAUAUUACGGUAA | -0.651 ± 0.089 | 0.0797 ± 0.093 |
| UGGCAGCAAUAUUACGGUCU | -0.537 ± 0.066 | 0.29 ± 0.087 |
| UGGCAGCAAUAUUACGUACG | -0.616 ± 0.077 | -0.265 ± 0.12 |
| UGGCAGCAAUAUUACGUGUA | -1.54 ± 0.089 | -0.712 ± 0.084 |
| UGGGAGCAAUAUUACGAAAU | -1.47 ± 0.19 |  |
| UGGGAGCAAUAUUACGAACG | -1.07 ± 0.1 | -0.54 ± 0.16 |
| UGGGAGCAAUAUUACGAGAU | -1.91 ± 0.27 | -2.04 ± 0.47 |
| UGGGAGCAAUAUUACGAUCC | -1.41 ± 0.39 |  |
| UGGGAGCAAUAUUACGAUGA |  | -1.63 ± 0.42 |
| UGGGAGCAAUAUUACGCCCA | -1.61 ± 0.4 |  |
| UGGGAGCAAUAUUACGCCUU | -2.66 ± 0.26 | -1.66 ± 0.31 |
| UGGGAGCAAUAUUACGCGGC | -2.57 ± 0.34 | -1.35 ± 0.28 |
